Measurements taken from the nanobody polyreactivity screen of Harvey et al. (2022).

Assay: yeast display, Sf9 membrane polyspecificity reagent, FACS + sequencing; frameworks hold sequencing errors
Outline: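 Polyreactivity labels are assigned by the sorting gate from which each nanobody was recovered. The gates were low and high (top ~1%), set on anti-HA fluorescence for expression and streptavidin fluorescence for reagent binding. Before sorting, galactose-induced (36–48 hours) yeast display cells were stained for 1 hour at 4 °C with 10% biotinylated, detergent-solubilized Sf9 membrane reagent.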

Sequence	polyreactivity (PSR sort gate)
QVQLVESGGGLVQAGGSLRLSCAASGSTFFYYAMGWYRQAPGKERELVAAISQSSASTYYADSVKGRFTISRDNAKNTIYLQMNSLKPEDTAVYYCAADYWSVPYIYEYWGQGTQVTVSS	high polyreactivity
QVQLVESGGGLVQAGGSLRLSCAASGSIFRTNTMGWYRQAPGKERELVARINRGGRTYYADSVKGRFTISRDNAKNTVYLQMNSLKPEDTAVYYCAAAPFFPHWYGYDYWGQGTHVTVSS	high polyreactivity
QVQLVESRGCLVQAGGSLRLSCAASGFIFAYYAMGWYRQAPRKERELVGAISSGGTTNYADSVMGRFTSSRDNAKNTVYLQMNSLKPEDTAVYYCAAAWGYYSTTIYKYSFNYDFWGQGTQVTVSS	high polyreactivity
QVQLVESGGGLVQAGGSLRLSCAASGSIFRGYAMGWYRQAPGKERELVATIDSSAGSTYYADSVKGRFTISRDNAKNTVYLQMNSLIPEDTAVYYCATDPYGYYYSGFDNWGQGTQVTVSS	low polyreactivity
QVQLVESGGGLVQAGGSLRLSCAASGLTFYFYAMGWYIQAPGKERELVAAIDWGGGSTYYADSVKGRFTISRDYAKNTVYLQMNSLKPEDTAVYYCAARGYYYNYDVNYWGQGTQVTVSS	low polyreactivity
QVQLVESGGGLVQAGGSLRLSCAASGSTFWVYTMGWYRQAPGKERELVAAISYGGGRTYYADSVKGRFTISRDNEKNTVYLQMNSLKPEDTAVYYCNKDYWRDVAQDVLDGYEYWGQGTQVTVSS	low polyreactivity
QVQLVESGGGLVKAGGSLRLSCAASGRIDSTYAMGWSRQAPGKERDLVAAINKIGGSTYYADSVKGRFTISRDNEKNTVYLQMNSLKPEDTAVYYCAADAPYYPVRRYYYWGQGTQVTVSA	low polyreactivity
QVQLVESGGGLVQAGGSLRFSCAASGSTFVYYAMGWSRQAPGKERELVARITLSGTSTSYADSVKGRFTISRDNAKNTVYLQMNSLKPEDTAVYYCAAESWSHRYYYWGQGTQVTVSS	low polyreactivity
QVQLVESGGGLVQAGGSLRLSCAASGRIFPYYTMGWYREAPGKERELVATITTGGSTNYADSVKGRFTISRDNAENTVYLQMNSLKPEDTAVYYCNKDGVVEVRFTGRQEYDYWGQGTQVTVSS	low polyreactivity
QFQLVESGGGLVQAGGSLRLSCAASGRTFKVYAMGWYRQAPGKERELVAAITGGGSTNYADSEKGRFTISRDNAKNTVYLQMNRLKAEDTAVYYGNARYYYRLVKWSRFSSYDYWGQGTQVTVSS	low polyreactivity
QVQLVESGGALVQAGGSLSLSCAASGSTYSYYAMGWYRQAPGKETEVVAAINRSGGSTYYADSVKGRFTISRDNAKYTVYLQMNSLKPEDTAVYYCAALRSKTVSYDRYDYWGQGTQVTVSS	high polyreactivity
QVQLVESGGCLVQAGGSLRLSCAASGRSFDKYTMGWYRQAPGKERELVAAISTRGGSTYYADSVKGRFTISRDNAKNTVYLQMNSLKPEDTAVYYCATVPRPKAYDYWGQGTQVTVSS	high polyreactivity
QVQLVESGGGLLQAGGSLRLSCAASGFIFGRNAMGWYRQAPGKERELVAAITRSGGSTYYADSVKGRFTISRDNAKNTVYLQMISLKTEDTAVYYCAKGDFYWGVFRVGIRDDYWGQGTQVNVSS	high polyreactivity
QVQLVESGGGLVQAGGSLSLSCAASGRIFSYNDMGWYRQAPGKERELVAAITSNDGSTYYADSVKGRFTISRDNAKNTVYLQMNSLKPVDSAVSYCTADVLFLSSYGYDYWGQGTQVTVSS	low polyreactivity
QVQLVESGGGLVQAGGSLRLSCAASGRIFFHNAMGWYRQARGKERELVAAISYSGGSTYYADSVKGRFTIARDNAKNTVYLQMNSLKPEDTAVYYCNRYGNSYYFPPGPLYNYWGQGTQVTVSS	high polyreactivity
QVQLVESGGGLVQAGGSLRLSCAASGLIFVPYAMGWYRQAPGKERELVAAINSGATTYYADSVKGRFTISRDNAKNTVYLQMNSLKPEDTAVYYCNAEYPVYVYWFDYWGQGTQVTVSS	high polyreactivity
QVQLVESGGGLVQAGGSLRLSCAASGFTFEENAMGWYRQAPGKERELVAAINWSGGNTYYADSVKGRFTISRDNAKNTVYLQMNSLKPEDTAVYYCAADSPRYYYWVGPYYGYDYWGQGTQVTVSS	high polyreactivity
